Sequences and labels used below:
T1: DR4, endogenous, in human cancer cell lysates (human, UniProt O00220 24-468)
T1 construct: also called TRAIL receptor DR4
T1 sequence (looked up): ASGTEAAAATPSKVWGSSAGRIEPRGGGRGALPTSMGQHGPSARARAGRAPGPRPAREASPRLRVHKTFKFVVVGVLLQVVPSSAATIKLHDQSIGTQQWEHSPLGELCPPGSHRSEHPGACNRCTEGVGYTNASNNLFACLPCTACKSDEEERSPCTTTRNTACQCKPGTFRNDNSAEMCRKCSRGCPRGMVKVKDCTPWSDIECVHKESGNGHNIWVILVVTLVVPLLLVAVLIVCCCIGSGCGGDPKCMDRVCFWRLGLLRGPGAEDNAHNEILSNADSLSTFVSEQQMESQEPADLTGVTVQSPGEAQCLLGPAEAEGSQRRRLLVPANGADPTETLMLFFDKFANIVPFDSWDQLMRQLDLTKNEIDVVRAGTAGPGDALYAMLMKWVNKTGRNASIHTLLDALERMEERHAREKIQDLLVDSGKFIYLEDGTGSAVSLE

B1: FADD, endogenous, in human cancer cell lysates (other, UniProt Q13158 1-208, looked up)
chain: MDPFLVLLHSVSSSLSSSELTELKFLCLGRVGKRKLERVQSGLDLFSMLLEQNDLEPGHTELLRELLASLRRHDLLRRVDDFEAGAAAGAAPGEEDLCAAFNVICDNVGKDWRRLARQLKVSDTKIDSIEDRYPRNLTERVRESLRIWKNTEKENATVAHLVGALRSCQMNLVADLVQEVQQARDLQNRSGAMSPMSWNSDASTSEAS
notes: also called Fas-associated death domain; p-FADD
B2: SPARC (Secreted Protein, Acidic, Rich in Cysteines), His-tagged, stably expressed in MIP101 cells (MIP/SP) (other, human, UniProt P09486 18-303, looked up)
chain: APQQEALPDETEVVEETVAEVTEVSVGANPVQVEVGEFDDGAEETEEEVVAENPCQNHHCKHGKVCELDENNTPMCVCQDPTSCPAPIGEFEKVCSNDNKTFDSSCHFFATKCTLEGTKKGHKLHLDYIGPCKYIPPCLDSELTEFPLRMRDWLKNVLVTLYERDEDNNLLTEKQKLRVKKIHENEKRLEAGDHPVELLARDFEKNYNMYIFPVHWQFGQLDQHPIDGYLSHTELAPLRAPLIPMEHCTTRFFETCDLDNDKYIALDEWAGCFGIKQKDIDKDLVI
notes: Present in membrane fractions of MIP/SP cell lysates used for co-immunoprecipitation; also called osteonectin; His-tagged SPARC protein; not shown: His tag

The target in experiment [1] is B2. Put plainly: co-immunoprecipitation from subcellular fractions. As for the experimental part: (§1) Cells were separated into nuclear, cytosolic, and membrane fractions using ProteoExtract Subcellular Proteome Extraction Kit (EMD Biosciences Inc.). […] Protein:Antibody mixture was then incubated with 30 μL of Protein A: Protein G (Sigma) (1:1) beads for 4 hours (4° C.).

Experiment [2] has as its target T1, DR4, endogenous, in human cancer cell …. The experiment is described as follows: co-immunoprecipitation from subcellular fractions. As for the experimental part: as §1

In the case of B1, the binding result in experiment [1] is reported as “no binding”.
Turning to B2, the binding result in experiment [2] is on record as “no binding”.
